In US20050260733:

B1: recombinant C-terminally truncated ADAMTS-8 (protein)
chain: MLPAPAAPRWPPLLLLLLLLLLPLARGAPARPAAGGQASELVVPTRLPGSAGELALHLSAFGKGFVLRLAPDDSFLAPEFKIERLGGSGRATGGERGLRGCFFSGTVNGEPESLAAVSLCRGLSGSFLLDGEEFTIQPQGAGGSLAQPHRLQRWGPAGARPLPRGPEWEVETGEGQRQERGDHQEDSEEESQEEEAEGASEPPPPLGATSRTKRFVSEARFVETLLVADASMAAFYGADLQNHILTLMSVAARIYKHPSIKNSINLMVVKVLIVEDEKWGPEVSDNGGLTLRNFCNWQRRFNQPSDRHPEHYDTAILLTRQNFCGQEGLCDTLGVADIGTICDPNKSCSVIEDEGLQAAHTLAHELGHVLSMPHDDSKPCTRLFGPMGKHHVMAPLFVHLNQTLPWSPCSAMYLTELLDGGHGDCLLDAPRAALPLPTGLPGRMALYQLDQQCRQIFGPDFRHCPNTSAQDVCAQLWCHTDGAEPLCHTKNGSLPWADGTPCGPGHLCSEGSCLPEEEVERPKPVADGGWAPWGPWGECSRTCGGGVQFSHRECKDPEPQNGGRYCLGRRAKYQSCHTEECPPDGKSFREQQCEKYNAYNYTDMDGNLLQWVPKYAGVSPRDRCKLFCRARGRSEFKVFEAKVIDGTLCGPETLAICVRGQCVKAGCDHVVDSPRKLDKCGVCGGKGNSCRKVSGSLTPTNYGYNDIVTIPAGATNIDVKQRSHPGVQNDGNYLALKTADGQYLLNGNLAISAIEQDILVKGTILKYSGSIATLERLQSFRPLPEPLTVQLLTVPGEVFPPKVKYTFFVPNDVDFSMQSSKERATTNIIQPLLHAQWVLGDWSECSSTCGAGWQRRTVECRDPSGQASATCNKALKPEDAKPCESQLCPL
B2: recombinant human ADAMTS-8 with C-terminal Strep-tag (protein)
chain: RFVSEARFVETLLVADASMAAFYGADLQNHILTLMSVAARIYKHPSIKNSINLMVVKVLIVEDEKWGPEVSDNGGLTLRNFCNWQRRFNQPSDRHPEHYDTAILLTRQNFCGQEGLCDTLGVADIGTICDPNKSCSVIEDEGLQAAHTLAHELGHVLSMPHDDSKPCTRLFGPMGKHHVMAPLFVHLNQTLPWSPCSAMYLTELLDGGHGDCLLDAPRAALPLPTGLPGRMALYQLDQQCRQIFGPDFRHCPNTSAQDVCAQLWCHTDGAEPLCHTKNGSLPWADGTPCGPGHLCSEGSCLPEEEVERPKPVADGGWAPWGPWGECSRTCGGGVQFSHRECKDPEPQNGGRYCLGRRAKYQSCHTEECPPDGKSFREQQCEKYNAYNYTDMDGNLLQWVPKYAGVSPRDRCKLFCRARGRSEFKVFEAKVIDGTLCGPETLAICVRGQCVKAGCDHVVDSPRKLDKCGVCGGKGNSCRKVSGSLTPTNYGYNDIVTIPAGATNIDVKQRSHPGVQNDGNYLALKTADGQYLLNGNLAISAIEQDILVKGTILKYSGSIATLERLQSFRPLPEPLTVQLLTVPGEVFPPKVKYTFFVPNDVDFSMQSSKERATTNIIQPLLHAQWVLGDWSECSSTCGAGWQRRTVECRDPSGQASATCNKALKPEDAKPCESQLCPLGSGSAWSHPQFEK

Legend:
[1] = biological target: undigested bovine aggrecan, P13608
undigested bovine aggrecan, P13608, sequence (P13608 20-2364): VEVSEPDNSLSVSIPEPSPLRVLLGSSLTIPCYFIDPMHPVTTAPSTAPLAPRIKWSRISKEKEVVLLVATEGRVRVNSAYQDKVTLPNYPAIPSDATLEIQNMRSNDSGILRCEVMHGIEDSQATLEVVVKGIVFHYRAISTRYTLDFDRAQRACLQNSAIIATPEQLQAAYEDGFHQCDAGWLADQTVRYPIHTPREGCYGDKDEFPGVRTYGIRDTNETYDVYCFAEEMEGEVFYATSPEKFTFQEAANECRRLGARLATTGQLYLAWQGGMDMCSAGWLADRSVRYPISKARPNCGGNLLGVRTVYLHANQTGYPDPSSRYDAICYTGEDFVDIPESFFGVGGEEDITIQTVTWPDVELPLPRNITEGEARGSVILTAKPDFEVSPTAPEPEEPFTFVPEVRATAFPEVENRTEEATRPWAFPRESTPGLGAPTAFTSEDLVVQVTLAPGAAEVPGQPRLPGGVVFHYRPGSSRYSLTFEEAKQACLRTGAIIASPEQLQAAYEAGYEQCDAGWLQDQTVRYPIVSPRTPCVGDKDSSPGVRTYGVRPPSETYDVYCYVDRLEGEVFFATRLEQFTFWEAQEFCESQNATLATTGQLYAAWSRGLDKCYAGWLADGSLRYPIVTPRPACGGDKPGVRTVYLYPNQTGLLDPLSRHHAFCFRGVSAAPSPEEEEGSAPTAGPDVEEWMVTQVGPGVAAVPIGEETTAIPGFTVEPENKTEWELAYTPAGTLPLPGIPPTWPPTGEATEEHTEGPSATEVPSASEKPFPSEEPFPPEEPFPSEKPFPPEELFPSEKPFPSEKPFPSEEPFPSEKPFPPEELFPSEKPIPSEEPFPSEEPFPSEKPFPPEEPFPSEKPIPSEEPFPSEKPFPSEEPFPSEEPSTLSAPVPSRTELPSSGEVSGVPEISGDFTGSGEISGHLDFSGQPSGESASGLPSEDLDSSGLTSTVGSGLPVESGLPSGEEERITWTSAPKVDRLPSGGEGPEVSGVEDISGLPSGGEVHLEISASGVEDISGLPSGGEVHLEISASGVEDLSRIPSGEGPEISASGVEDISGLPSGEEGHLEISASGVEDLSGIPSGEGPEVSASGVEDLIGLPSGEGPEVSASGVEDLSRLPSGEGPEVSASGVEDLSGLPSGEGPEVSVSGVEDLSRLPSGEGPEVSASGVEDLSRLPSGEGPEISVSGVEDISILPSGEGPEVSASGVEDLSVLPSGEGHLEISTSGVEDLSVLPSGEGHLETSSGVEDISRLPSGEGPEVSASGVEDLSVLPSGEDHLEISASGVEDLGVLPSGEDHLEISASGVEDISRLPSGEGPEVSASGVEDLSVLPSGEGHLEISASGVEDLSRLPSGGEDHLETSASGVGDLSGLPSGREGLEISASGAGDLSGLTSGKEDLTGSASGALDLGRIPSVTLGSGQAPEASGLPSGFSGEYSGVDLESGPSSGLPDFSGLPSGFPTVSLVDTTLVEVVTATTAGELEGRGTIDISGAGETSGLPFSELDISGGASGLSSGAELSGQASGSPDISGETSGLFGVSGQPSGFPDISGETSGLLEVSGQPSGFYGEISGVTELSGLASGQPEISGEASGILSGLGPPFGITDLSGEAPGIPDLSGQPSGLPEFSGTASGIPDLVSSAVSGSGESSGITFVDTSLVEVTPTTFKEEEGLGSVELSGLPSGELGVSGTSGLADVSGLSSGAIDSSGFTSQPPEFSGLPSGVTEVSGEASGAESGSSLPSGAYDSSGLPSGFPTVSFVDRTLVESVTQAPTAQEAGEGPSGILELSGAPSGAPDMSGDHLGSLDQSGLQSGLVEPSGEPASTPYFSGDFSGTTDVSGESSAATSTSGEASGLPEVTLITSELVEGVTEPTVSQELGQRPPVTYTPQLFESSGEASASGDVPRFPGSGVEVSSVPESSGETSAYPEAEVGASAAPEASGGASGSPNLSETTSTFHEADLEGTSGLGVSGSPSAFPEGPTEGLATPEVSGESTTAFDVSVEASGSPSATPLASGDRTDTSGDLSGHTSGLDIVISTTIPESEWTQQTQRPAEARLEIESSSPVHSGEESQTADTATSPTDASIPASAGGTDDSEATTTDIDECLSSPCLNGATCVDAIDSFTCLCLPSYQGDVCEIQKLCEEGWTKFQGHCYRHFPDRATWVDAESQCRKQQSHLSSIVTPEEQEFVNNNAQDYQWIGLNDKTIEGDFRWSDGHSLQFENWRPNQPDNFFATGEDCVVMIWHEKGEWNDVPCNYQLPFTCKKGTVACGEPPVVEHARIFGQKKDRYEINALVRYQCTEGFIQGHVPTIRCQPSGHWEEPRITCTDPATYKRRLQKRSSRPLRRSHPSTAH

α-2 macroglobulin = biological target: T1, α-2 macroglobulin
T1 sequence (P01023 24-1474, species assumed, looked up): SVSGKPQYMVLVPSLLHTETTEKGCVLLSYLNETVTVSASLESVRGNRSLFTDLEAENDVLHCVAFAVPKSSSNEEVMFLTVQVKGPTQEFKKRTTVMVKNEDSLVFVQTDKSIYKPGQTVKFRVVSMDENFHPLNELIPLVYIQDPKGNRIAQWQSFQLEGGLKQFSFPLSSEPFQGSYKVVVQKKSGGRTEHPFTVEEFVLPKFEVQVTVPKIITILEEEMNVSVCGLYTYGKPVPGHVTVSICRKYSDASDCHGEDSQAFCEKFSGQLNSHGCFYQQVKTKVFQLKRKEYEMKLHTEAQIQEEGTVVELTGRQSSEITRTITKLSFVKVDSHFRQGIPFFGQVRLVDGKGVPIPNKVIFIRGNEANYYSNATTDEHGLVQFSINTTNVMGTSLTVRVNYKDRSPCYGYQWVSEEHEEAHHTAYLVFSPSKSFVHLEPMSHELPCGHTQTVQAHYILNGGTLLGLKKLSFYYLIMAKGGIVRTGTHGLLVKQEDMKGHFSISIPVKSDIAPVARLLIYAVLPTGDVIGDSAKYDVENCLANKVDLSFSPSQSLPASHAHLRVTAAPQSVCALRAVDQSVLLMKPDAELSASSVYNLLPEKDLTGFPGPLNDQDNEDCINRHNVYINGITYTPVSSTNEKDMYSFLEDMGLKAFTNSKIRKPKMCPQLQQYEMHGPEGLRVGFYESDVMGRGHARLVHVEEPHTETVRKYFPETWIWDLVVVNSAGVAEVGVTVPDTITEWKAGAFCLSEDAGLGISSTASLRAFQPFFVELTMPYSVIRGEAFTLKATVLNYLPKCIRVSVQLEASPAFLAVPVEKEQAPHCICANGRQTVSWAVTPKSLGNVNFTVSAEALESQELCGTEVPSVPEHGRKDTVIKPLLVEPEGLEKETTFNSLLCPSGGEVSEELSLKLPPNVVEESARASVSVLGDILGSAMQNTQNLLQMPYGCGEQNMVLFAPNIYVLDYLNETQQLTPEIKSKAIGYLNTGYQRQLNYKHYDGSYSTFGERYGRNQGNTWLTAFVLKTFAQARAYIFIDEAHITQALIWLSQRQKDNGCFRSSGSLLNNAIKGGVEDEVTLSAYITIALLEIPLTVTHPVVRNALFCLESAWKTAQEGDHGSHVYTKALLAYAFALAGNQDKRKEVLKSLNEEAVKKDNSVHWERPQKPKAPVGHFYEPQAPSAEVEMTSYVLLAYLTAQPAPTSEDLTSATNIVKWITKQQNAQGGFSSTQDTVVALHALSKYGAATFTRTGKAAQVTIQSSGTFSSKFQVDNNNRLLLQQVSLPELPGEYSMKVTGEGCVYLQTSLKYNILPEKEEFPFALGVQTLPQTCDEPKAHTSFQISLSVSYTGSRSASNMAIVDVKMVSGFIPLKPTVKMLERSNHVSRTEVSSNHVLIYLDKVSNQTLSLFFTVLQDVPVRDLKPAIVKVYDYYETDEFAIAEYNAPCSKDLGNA

Protein	aggrecan cleavage by AGG-C1 Western blotting [1]	α2-macroglobulin assay (α-2 macroglobulin)	aggrecan cleavage seen by neoepitope Western blot [1]	lowest enzyme:substrate ratio at which cleavage is detected by Western blot [1]
B1	it seemed to be no more active than full-length recombinant ADAMTS-8 on aggrecan substrate as judged by AGG-C1 Western blotting	the purified protein was active as judged by α2-macroglobulin assay	–	–
B2	–	–	MAb BC-3 immunoreactive bands increased in intensity with increasing amounts of ADAMTS-8 protein relative to aggrecan substrate	cleavage of bovine articular cartilage aggrecan by ADAMTS-8 at an enzyme:substrate ratio of 1:0.5 using the BC-3 neoepitope MAb ... can be readily detected
